Among the data in patent publication US20090130104A1 are half-maximal binding values, retold here.

This test addresses murine PECAM-1 on cells (bEND3 endothelial cells; REN cells transfected with full-length mouse PECAM) (mouse) (UniProt Q08481). As to the kind of experiment: flow cytometry on CD31 positive bEND3 endothelial cells. In general terms: A flow cytometer gives signals particle by particle.

murine PECAM-1 on cells (bEND3 endothelial cells; REN cells transfected with full-length mouse PECAM) (mouse), sequence (Q08481 18-727): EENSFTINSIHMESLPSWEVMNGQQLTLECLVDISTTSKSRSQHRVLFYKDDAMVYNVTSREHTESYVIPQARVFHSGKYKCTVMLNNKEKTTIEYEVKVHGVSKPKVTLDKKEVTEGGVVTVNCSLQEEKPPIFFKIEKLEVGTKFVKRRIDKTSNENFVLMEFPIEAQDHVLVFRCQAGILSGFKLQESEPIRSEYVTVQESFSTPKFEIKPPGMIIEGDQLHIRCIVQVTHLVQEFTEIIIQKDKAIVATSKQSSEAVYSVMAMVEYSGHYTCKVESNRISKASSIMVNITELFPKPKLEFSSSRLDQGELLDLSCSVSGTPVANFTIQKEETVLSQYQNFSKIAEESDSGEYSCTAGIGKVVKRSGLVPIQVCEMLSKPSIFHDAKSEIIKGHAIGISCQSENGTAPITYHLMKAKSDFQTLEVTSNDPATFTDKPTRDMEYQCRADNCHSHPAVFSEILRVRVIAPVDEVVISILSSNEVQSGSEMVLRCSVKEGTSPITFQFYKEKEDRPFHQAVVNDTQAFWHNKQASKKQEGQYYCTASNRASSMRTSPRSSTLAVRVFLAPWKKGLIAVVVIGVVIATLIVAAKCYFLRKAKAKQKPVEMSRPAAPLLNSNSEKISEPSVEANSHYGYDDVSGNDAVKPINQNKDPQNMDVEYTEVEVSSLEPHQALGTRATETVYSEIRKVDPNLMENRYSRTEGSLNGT

“anti-PECAM scFv (from antibody 390) tagged with soluble tissue factor (sTF)”: the half-maximal binding was found to be 50 nM.
